This is an account of results in US20250145711A1 (Janssen / Centocor, published 2025).

What is called EC50 is the concentration giving half of the maximal effect. The low end stands for greater potency, the high end for weaker potency. As a reminder, the Kd is the concentration at which binding is half-saturated.

The labels stand for the following.
B1: CD3B1129 (scFv)
scFv: QVQLVQSGAEVKKPGSSVKVSCKASGYTFTRSTMHWVRQAPGQGLEWMGYINPSSAYTNYNQKFQGRVTLTADKSTSTAYMELSSLRSEDTAVYYCARPQVHYDYNGFPYWGQGTLVTVSSGGSEGKSSGSGSESKSTGGSDIQLTQSPSSLSASVGDRVTITCSASSSVSYMNWYQQKPGTSPKRLIYDSSKLASGVPSRFSGSGSGTDYTLTISSLQPEDFATYYCQQWSRNPPTFGGGTKVEIK
B2: CD3B1131 (scFv)
scFv: EVQLVQSGAEVKKPGESLRISCKASGYTFTRSTMHWVRQMPGKGLEWMGYINPSSAYTNYNPSFQGHVTLSADKSISTAYLQWSSLKASDTAMYYCARPQVHYDYNGFPYWGQGTLVTVSSGGSEGKSSGSGSESKSTGGSDIQLTQSPSSLSASVGDRVTITCSASSSVSYMNWYQQKPGTSPKRLIYDSSKLASGVPSRFSGSGSGTDYTLTISSLQPEDFATYYCQQWSRNPPTFGGGTKVEIK
notes: also called CD381131
B3: PS3B922 (bispecific antibody, human IgG1, lambda, L234A L235A)
heavy 1: QVQLQQSGPRLVRPSQTLSLTCAISGDSVFNNNAAWSWIRQSPSRGLEWLGRTYYRSKWLYDYAVSVKSRITVNPDTSRNQFTLQLNSVTPEDTALYYCARGYSSSFDYWGQGTLVTVSSASTKGPSVFPLAPSSKSTSGGTAALGCLVKDYFPEPVTVSWNSGALTSGVHTFPAVLQSSGLYSLSSVVTVPSSSLGTQTYICNVNHKPSNTKVDKKVEPKSCDKTHTCPPCPAPEAAGGPSVFLFPPKPKDTLMISRTPEVTCVVVSVSHEDPEVKFNWYVDGVEVHNAKTKPREEQYNSTYRVVSVLTVLHQDWLNGKEYKCKVSNKALPAPIEKTISKAKGQPREPQVYTLPPSREEMTKNQVSLTCLVKGFYPSDIAVEWESNGQPENNYKTTPPVLDSDGSFLLYSKLTVDKSRWQQGNVFSCSVMHEALHNHYTQKSLSLSPG
light 1: QSALTQPASVSGSPGQSITISCTGTSSNIGTYKFVSWYQQHPDKAPKVLLYEVSKRPSGVSSRFSGSKSGNTASLTISGLQAEDQADYHCVSYAGSGTLLFGGGTKLTVLGQPKAAPSVTLFPPSSEELQANKATLVCLISDFYPGAVTVAWKADSSPVKAGVETTTPSKQSNNKYAASSYLSLTPEQWKSHRSYSCQVTHEGSTVEKTVAPTECS
heavy 2: EVQLVESGGGLVQPGGSLRLSCAASGFTFSSYAMSWVRQAPGKGLEWVSAISGGSGSTYYADSVKGRFTISRDNSKNTLYLQMNSLRAEDSAVYYCAKDGVGATPYYFDYWGQGTLVTVSSASTKGPSVFPLAPSSKSTSGGTAALGCLVKDYFPEPVTVSWNSGALTSGVHTFPAVLQSSGLYSLSSVVTVPSSSLGTQTYICNVNHKPSNTKVDKKVEPKSCDKTHTCPPCPAPEAAGGPSVFLFPPKPKDTLMISRTPEVTCVVVSVSHEDPEVKFNWYVDGVEVHNAKTKPREEQYNSTYRVVSVLTVLHQDWLNGKEYKCKVSNKALPAPIEKTISKAKGQPREPQVYTLPPSREEMTKNQVSLTCLVKGFYPSDIAVEWESNGQPENNYKTTPPVLDSDGSFFLYSRLTVDKSRWQQGNVFSCSVMHEALHNHYTQKSLSLSPG
light 2: QSVLTQPPSVSAAPGQKVTISCSGSSSNIGINYVSWYQQLPGTAPKLLIYDNNKRPSGIPDRFSGSKSGTSATLGITGLQTGDEADYYCGTWDSSLSAVVFGGGTKLTVLGQPKAAPSVTLFPPSSEELQANKATLVCLISDFYPGAVTVAWKADSSPVKAGVETTTPSKQSNNKYAASSYLSLTPEQWKSHRSYSCQVTHEGSTVEKTVAPTECS
notes: FAB-A: CD3B891 (CD3B376 - K477); FAB-B: PSMB898
B4: PS3B932 (bispecific antibody, human IgG1, kappa, lambda, L234A L235A)
heavy 1: EVQLVESGGGLVKPGGSLRLSCAASGFTFSRYNMNWVRQAPGKGLEWVSSISTSSNYIYYADSVKGRFTFSRDNAKNSLDLQMSGLRAEDTAIYYCTRGWGPFDYWGQGTLVTVSSASTKGPSVFPLAPSSKSTSGGTAALGCLVKDYFPEPVTVSWNSGALTSGVHTFPAVLQSSGLYSLSSVVTVPSSSLGTQTYICNVNHKPSNTKVDKKVEPKSCDKTHTCPPCPAPEAAGGPSVFLFPPKPKDTLMISRTPEVTCVVVSVSHEDPEVKFNWYVDGVEVHNAKTKPREEQYNSTYRVVSVLTVLHQDWLNGKEYKCKVSNKALPAPIEKTISKAKGQPREPQVYTLPPSREEMTKNQVSLTCLVKGFYPSDIAVEWESNGQPENNYKTTPPVLDSDGSFLLYSKLTVDKSRWQQGNVFSCSVMHEALHNHYTQKSLSLSP
light 1: DIQMTQSPSSLSASVGDRVTITCRARQSIGTAIHWYQQKPGKAPKLLIKYASESISGVPSRFSGSGSGTDFTLTISSLQPEDFATYYCQQSGSWPYTFGQGTKLEIKRTVAAPSVFIFPPSDEQLKSGTASVVCLLNNFYPREAKVQWKVDNALQSGNSQESVTEQDSKDSTYSLSSTLTLSKADYEKHKVYACEVTHQGLSSPVTKSFNRGEC
heavy 2: B3 heavy 2 with S55I, Y80W, S91T
light 2: B3 light 2 with I31N, V99Y, G103T, L107V
notes: FAB-A: CD3B2183 (CD3W245); FAB-B: PSMB895
B5: PS3B933 (bispecific antibody, human IgG1, kappa, lambda, L234A L235A)
heavy 1: B4 heavy 1
light 1: B4 light 1
heavy 2: B3 heavy 2
light 2: B3 light 2 with I31N, V99Y, G103T, L107V
notes: FAB-A: CD3B2183 (CD3W245); FAB-B: PSMB897
B6: PS3B925 (bispecific antibody, human IgG1, kappa, lambda, L234A L235A)
heavy 1: B4 heavy 1
light 1: B4 light 1
heavy 2: B3 heavy 2 with A23T, T28I, S55Y, S57A, T58P, S63T, S91T, Y110D, T115I
light 2: B3 light 2 with I31N, Y50F, V99Y, G103T, L107V
notes: FAB-A: CD3B2183 (CD3W245); FAB-B: PSMB899
B7: PS3B935 (bispecific antibody, human IgG1, kappa, lambda, L234A L235A)
heavy 1: B4 heavy 1
light 1: B4 light 1
heavy 2: B3 heavy 2
light 2: B3 light 2
notes: FAB-A: CD3B2183 (CD3W245); FAB-B: PSMB898
B8: PS3B934 (bispecific antibody, human IgG1, kappa, lambda, L234A L235A)
heavy 1: B4 heavy 1
light 1: B4 light 1
heavy 2: B3 heavy 2 with S55I, Y80W, S91T
light 2: B3 light 2
notes: FAB-A: CD3B2183 (CD3W245); FAB-B: PSMB896
B9: PS3B926 (bispecific antibody, human IgG1, kappa, lambda, L234A L235A)
heavy 1: B4 heavy 1
light 1: B4 light 1
heavy 2: not shown
light 2: not shown
notes: FAB-A: CD3B2183 (CD3W245); FAB-B: PSMB891
B10: PS3B928 (bispecific antibody, human IgG1, kappa, lambda, L234A L235A)
heavy 1: B4 heavy 1
light 1: B4 light 1
heavy 2: not shown
light 2: not shown
notes: FAB-A: CD3B2183 (CD3W245); FAB-B: PSMB892

Substitutions are numbered along the chain they refer to.

T2 sequence (Q04609 whole entry): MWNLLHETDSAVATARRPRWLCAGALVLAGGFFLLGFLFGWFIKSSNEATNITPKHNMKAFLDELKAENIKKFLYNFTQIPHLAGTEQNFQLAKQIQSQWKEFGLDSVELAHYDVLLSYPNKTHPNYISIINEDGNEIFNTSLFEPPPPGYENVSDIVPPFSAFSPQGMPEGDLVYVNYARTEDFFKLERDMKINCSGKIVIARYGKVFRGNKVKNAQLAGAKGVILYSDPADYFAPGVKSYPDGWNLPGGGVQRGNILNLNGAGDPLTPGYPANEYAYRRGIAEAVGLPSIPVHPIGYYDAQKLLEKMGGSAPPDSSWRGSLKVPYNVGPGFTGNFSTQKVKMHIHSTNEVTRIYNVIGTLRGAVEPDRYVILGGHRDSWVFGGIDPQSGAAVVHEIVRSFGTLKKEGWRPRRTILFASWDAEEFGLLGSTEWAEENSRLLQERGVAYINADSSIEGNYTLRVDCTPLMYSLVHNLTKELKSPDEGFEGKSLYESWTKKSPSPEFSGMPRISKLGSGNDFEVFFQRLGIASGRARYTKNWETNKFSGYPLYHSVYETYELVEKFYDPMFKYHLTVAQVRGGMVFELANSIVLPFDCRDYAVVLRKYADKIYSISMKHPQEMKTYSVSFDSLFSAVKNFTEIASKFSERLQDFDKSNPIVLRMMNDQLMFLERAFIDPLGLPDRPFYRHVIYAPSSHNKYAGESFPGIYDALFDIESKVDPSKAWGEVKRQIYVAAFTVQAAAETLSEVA
T1 sequence (chain, as listed by the source mutant limits assumed): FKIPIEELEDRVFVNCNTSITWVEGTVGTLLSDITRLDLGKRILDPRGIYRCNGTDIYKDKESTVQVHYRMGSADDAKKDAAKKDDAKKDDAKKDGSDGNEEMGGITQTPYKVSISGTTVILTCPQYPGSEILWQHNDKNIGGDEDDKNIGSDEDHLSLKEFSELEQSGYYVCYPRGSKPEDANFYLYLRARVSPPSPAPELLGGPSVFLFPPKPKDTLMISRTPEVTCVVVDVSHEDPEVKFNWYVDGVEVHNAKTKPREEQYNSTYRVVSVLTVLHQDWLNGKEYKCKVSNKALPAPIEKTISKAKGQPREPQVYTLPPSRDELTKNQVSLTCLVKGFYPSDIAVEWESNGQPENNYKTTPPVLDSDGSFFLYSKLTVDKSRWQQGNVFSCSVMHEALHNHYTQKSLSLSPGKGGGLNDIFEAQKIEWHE

The first assay addresses T1, TRCW5 antigen (CD3δε-Fc-Avi) (biotinylated (site not stated)).
T1 construct: also called recombinant CD3
Nature of the assay: ELISA, E. coli scFv on biotinylated TRCW5. The protocol: Briefly, DNA was transformed into an E. coli expression vector to generate scFv molecules having a C-terminal HA-tag, and cells were plated on 2×YT/Carb/2% Glucose grown overnight at 37 C. Colonies were picked and transferred 50 ul of overnight growth cultures to new plates containing 500 ul of 2×YT/Carb/0.1% Glucose, grown for 6-7 hr, and combined with 50 ul 2×YT medium containing 1×carbenicillin & 12×IPTG. Cultures were incubated with shaking ˜600 RPM 30° C. overnight. Streptavidin coated plates were bound with 50 μL of biotinylated TRCW5 antigen (CD3δε-Fc-Avi, SEQ ID NO: 39) at the concentrations indicated in the ELISA graph for 45 min at room temperature with shaking (FIG. 1, FIG. 3, FIG. 4) followed by washing 3× with 1×TBST. Plates were blocked with 200 ul 3% Milk in 1×TBST for ˜45 mins at room temperature followed by washing 3× with 1×TBST. E. coli cultures were harvested by centrifugation at […] for 10 mins 4° C. and 50 μL of supernatant was transferred into CD3-coated plates followed by incubation at 4 C for 45 min. Plates were washed 3× with 1×TBST. Bound scFv was detected with Chicken Polyclonal Anti-HA-HRP (ab1190) [1:1000] for ˜45 mins RT and luminescence detected with chemi-luminescent substrate.
(ELISA stands for enzyme-linked immunosorbent assay.)
B1: the EC50 came out at 0.712 nM.
Same read-out and setting: the result for B2 reads 1.14 nM.

A further assay has as its target T2, human PSMA on prostate cancer cell lines (22RV1, C4-2B) (human, UniProt Q04609 1-750).
T2 construct: also called PSMA-expressing cell lines
Description: flow cytometry on 22RV1 cells. The protocol:
(§1) 22RV1 and C4-2B cells were plated at 50,000 cells per well in 50 μl of assay medium (RPMI, 10% HI FBS) in V bottom plates. Serial dilutions of antibodies were prepared in assay medium with 50 μl of antibody dilutions added to the plates containing cells. The plates were incubated for 60 min at 37° C. at which time 100 μl of staining buffer (Becton Dickinson Cat #554657) was added to all wells of each plate. The plates were centrifuged at 300×G for 5 minutes and the medium was removed from the wells. 200 μl of staining buffer was added to all wells of each plate. The plates were centrifuged at 300× G for 5 minutes and the medium was removed from the wells. 50 μl of 2 μg/ml AlexaFluor647-labeled goat anti-human Fc was added to all wells of the plates and the plates were incubated for 30 minutes at 4° C. 150 μl of staining buffer was added to all wells of each plate. The plates were centrifuged at 300× G for 5 minutes and the medium was removed from the wells.
(Flow cytometry measures light scatter and fluorescence of single cells or particles in a stream.)
B3 returned an EC50 of 34.7 nM.
Consider B4, for which the EC50 was found to be 48.7 nM.
Same read-out and setting: the result for B5 reads 60 nM.
Same read-out and setting: the result for B6 reads 21.2 nM; that for B7, 39.5 nM; that for B8, 4.96 nM.
Same read-out and setting: the result for B9 reads 2.9 nM; that for B10, 60 nM.

The target in the next assay is T2, human PSMA on prostate cancer cell …. Nature of the assay: flow cytometry on C4-2B cells. The protocol:
as §1
B3: it took 44.1 nM to reach a half-maximal effect (EC50).
The same measure, in the same setting: in the case of B4 it was 60 nM; in that of B5, 60 nM; in that of B6, 11.7 nM.
B7 gave an EC50 of 8.22 nM.
Still for that read-out and setting: the result for B8 reads 11 nM; that for B9, 4.55 nM.
The molecule B10 had an EC50 of 60 nM.

The target of the next assay is T3, recombinant human PSMA (human, UniProt Q04609 44-750).
T3 construct: also called hu PSMA; prostate-specific membrane antigen
T3 sequence (Q04609 44-750 limits assumed): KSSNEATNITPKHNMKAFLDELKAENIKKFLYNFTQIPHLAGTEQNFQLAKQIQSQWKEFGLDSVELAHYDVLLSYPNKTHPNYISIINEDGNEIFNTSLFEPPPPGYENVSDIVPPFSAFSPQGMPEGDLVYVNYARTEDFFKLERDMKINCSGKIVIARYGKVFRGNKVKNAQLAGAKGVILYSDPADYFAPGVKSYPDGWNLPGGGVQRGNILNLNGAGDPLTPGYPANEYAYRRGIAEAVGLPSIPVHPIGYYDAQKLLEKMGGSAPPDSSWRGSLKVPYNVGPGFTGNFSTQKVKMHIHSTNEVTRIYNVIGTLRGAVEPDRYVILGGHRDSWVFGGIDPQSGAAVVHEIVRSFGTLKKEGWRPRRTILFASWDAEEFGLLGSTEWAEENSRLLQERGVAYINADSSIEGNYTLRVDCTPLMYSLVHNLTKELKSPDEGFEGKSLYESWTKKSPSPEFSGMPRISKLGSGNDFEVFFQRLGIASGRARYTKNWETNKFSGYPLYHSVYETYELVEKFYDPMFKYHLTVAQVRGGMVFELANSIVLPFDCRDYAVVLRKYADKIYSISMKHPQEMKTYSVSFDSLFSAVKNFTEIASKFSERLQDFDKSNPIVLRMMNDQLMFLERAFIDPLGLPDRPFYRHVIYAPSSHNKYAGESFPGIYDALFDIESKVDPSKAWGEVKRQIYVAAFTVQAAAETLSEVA
Nature of the assay: SPR (Biacore 8K), antibody captured on anti-Fc, PSMA in solution. The protocol:
The binding affinity of anti-PSMA to the recombinant human, cynomolgus or mouse PSMA was determined by surface plasmon resonance (SPR) using a Biacore 8K instrument\. […] The association and dissociation were monitored for 3 and 15 minutes, respectively, using a flow rate of 50 μL/min. Raw binding data was referenced by subtracting the analyte binding signals from blanks and analyzed using a 1:1 Langmuir binding model using the Biacore Insight evaluation software to obtain the kinetics which were used to calculate the binding affinity. The anti-PSMA were captured using an anti-human Fc antibody and the antigens were injected in solution.
Consider B3, for which the Kd came to 0.41 nM.
On to B4, for which the Kd was 0.787 nM.
Same read-out and setting: in the case of B5 it was 1.44 nM.
The same measure, in the same setting: the result for B6 reads 0.169 nM; that for B7, 0.454 nM; that for B8, at most 0.0873 nM.
As for B9, the Kd was at most 0.253 nM.
On the same count and under the same terms, in the case of B10 it was 2.37 nM.
